{
  "source": "the Immune Epitope Database (IEDB)",
  "assay_in_all_cases": "IEDB peptide-MHC binding, purified MHC/competitive/radioactivity; filed as Kd, often an IC50 or EC50 that approximates it; ≥ and ≤ were set here for values at or beyond the usual limits of such assays",
  "key": {"HLA-A*11:01": {"molecular_target": "HLA-A*11:01"}, "HLA-A*33:01": {"molecular_target": "HLA-A*33:01"}, "HLA-A*68:01": {"molecular_target": "HLA-A*68:01"}, "HLA-A*31:01": {"molecular_target": "HLA-A*31:01"}, "HLA-A*03:01": {"molecular_target": "HLA-A*03:01"}, "HLA-A*02:06": {"molecular_target": "HLA-A*02:06"}, "HLA-A*02:02": {"molecular_target": "HLA-A*02:02"}, "HLA-A*02:03": {"molecular_target": "HLA-A*02:03"}, "[1]": {"settings": "source organism: Vaccinia virus WR"}, "[2]": {"settings": "source organism: Mammarenavirus juninense"}, "[3]": {"settings": "source organism: SARS coronavirus Tor2"}, "[4]": {"settings": "source organism: Mammarenavirus guanaritoense"}, "[5]": {"settings": "source organism: Lassa virus Josiah"}},
  "data": [
    {"sequence": "AMENLKAMLY", "values": [
      {"measurement": "Kd", "setting": "HLA-A*11:01; [1]", "value": 222, "unit": "nM"},
      {"measurement": "Kd", "setting": "HLA-A*33:01; [1]", "value": "≥ 70000", "unit": "nM"},
      {"measurement": "Kd", "setting": "HLA-A*68:01; [1]", "value": 2790, "unit": "nM"},
      {"measurement": "Kd", "setting": "HLA-A*31:01; [1]", "value": "≥ 41900", "unit": "nM"},
      {"measurement": "Kd", "setting": "HLA-A*03:01; [1]", "value": 144, "unit": "nM"}
    ]},
    {"sequence": "TILATLNTLI", "values": [
      {"measurement": "Kd", "setting": "HLA-A*02:06; [1]", "value": 335, "unit": "nM"},
      {"measurement": "Kd", "setting": "HLA-A*02:02; [1]", "value": 39.5, "unit": "nM"},
      {"measurement": "Kd", "setting": "HLA-A*02:03; [1]", "value": 29.7, "unit": "nM"}
    ]},
    {"sequence": "DLLNVTYNIK", "values": [
      {"measurement": "Kd", "setting": "HLA-A*11:01; [1]", "value": 302, "unit": "nM"},
      {"measurement": "Kd", "setting": "HLA-A*33:01; [1]", "value": 1110, "unit": "nM"},
      {"measurement": "Kd", "setting": "HLA-A*68:01; [1]", "value": 1670, "unit": "nM"},
      {"measurement": "Kd", "setting": "HLA-A*31:01; [1]", "value": 15200, "unit": "nM"},
      {"measurement": "Kd", "setting": "HLA-A*03:01; [1]", "value": 367, "unit": "nM"}
    ]},
    {"sequence": "IMNLEMIDER", "values": [
      {"measurement": "Kd", "setting": "HLA-A*11:01; [1]", "value": 19200, "unit": "nM"},
      {"measurement": "Kd", "setting": "HLA-A*33:01; [1]", "value": 1560, "unit": "nM"},
      {"measurement": "Kd", "setting": "HLA-A*68:01; [1]", "value": 3610, "unit": "nM"},
      {"measurement": "Kd", "setting": "HLA-A*31:01; [1]", "value": 1280, "unit": "nM"},
      {"measurement": "Kd", "setting": "HLA-A*03:01; [1]", "value": "≥ 70100", "unit": "nM"}
    ]},
    {"sequence": "DVNSVQFSI", "values": [
      {"measurement": "Kd", "setting": "HLA-A*02:06; [1]", "value": 16900, "unit": "nM"},
      {"measurement": "Kd", "setting": "HLA-A*02:02; [1]", "value": 10400, "unit": "nM"},
      {"measurement": "Kd", "setting": "HLA-A*02:03; [1]", "value": 16200, "unit": "nM"}
    ]},
    {"sequence": "QVKDNIISR", "values": [
      {"measurement": "Kd", "setting": "HLA-A*11:01; [1]", "value": 185, "unit": "nM"},
      {"measurement": "Kd", "setting": "HLA-A*33:01; [1]", "value": 64.8, "unit": "nM"},
      {"measurement": "Kd", "setting": "HLA-A*68:01; [1]", "value": 11.3, "unit": "nM"},
      {"measurement": "Kd", "setting": "HLA-A*31:01; [1]", "value": 908, "unit": "nM"},
      {"measurement": "Kd", "setting": "HLA-A*03:01; [1]", "value": 2550, "unit": "nM"}
    ]},
    {"sequence": "EQRRSTIFDI", "values": [
      {"measurement": "Kd", "setting": "HLA-A*02:06; [1]", "value": "≥ 25600", "unit": "nM"},
      {"measurement": "Kd", "setting": "HLA-A*02:02; [1]", "value": "≥ 23000", "unit": "nM"},
      {"measurement": "Kd", "setting": "HLA-A*02:03; [1]", "value": 11400, "unit": "nM"}
    ]},
    {"sequence": "EKYGHLCKYH", "values": [
      {"measurement": "Kd", "setting": "HLA-A*11:01; [2]", "value": "≥ 69700", "unit": "nM"},
      {"measurement": "Kd", "setting": "HLA-A*33:01; [2]", "value": "≥ 70000", "unit": "nM"},
      {"measurement": "Kd", "setting": "HLA-A*68:01; [2]", "value": "≥ 70100", "unit": "nM"},
      {"measurement": "Kd", "setting": "HLA-A*31:01; [2]", "value": "≥ 70000", "unit": "nM"},
      {"measurement": "Kd", "setting": "HLA-A*03:01; [2]", "value": "≥ 70000", "unit": "nM"}
    ]},
    {"sequence": "FLAFLLFLV", "values": [
      {"measurement": "Kd", "setting": "HLA-A*02:06; [3]", "value": 9, "unit": "nM"},
      {"measurement": "Kd", "setting": "HLA-A*02:02; [3]", "value": 1.81, "unit": "nM"},
      {"measurement": "Kd", "setting": "HLA-A*02:03; [3]", "value": 58.3, "unit": "nM"}
    ]},
    {"sequence": "FLRPVLKAM", "values": [
      {"measurement": "Kd", "setting": "HLA-A*02:06; [1]", "value": 5480, "unit": "nM"},
      {"measurement": "Kd", "setting": "HLA-A*02:02; [1]", "value": 1380, "unit": "nM"},
      {"measurement": "Kd", "setting": "HLA-A*02:03; [1]", "value": 9.75, "unit": "nM"}
    ]},
    {"sequence": "SYSKMSVVMR", "values": [
      {"measurement": "Kd", "setting": "HLA-A*11:01; [4]", "value": "≥ 21700", "unit": "nM"},
      {"measurement": "Kd", "setting": "HLA-A*33:01; [4]", "value": 55.9, "unit": "nM"},
      {"measurement": "Kd", "setting": "HLA-A*68:01; [4]", "value": 132, "unit": "nM"},
      {"measurement": "Kd", "setting": "HLA-A*31:01; [4]", "value": 5.69, "unit": "nM"},
      {"measurement": "Kd", "setting": "HLA-A*03:01; [4]", "value": 9970, "unit": "nM"}
    ]},
    {"sequence": "STYPGNTFV", "values": [
      {"measurement": "Kd", "setting": "HLA-A*02:06; [1]", "value": 0.464, "unit": "nM"},
      {"measurement": "Kd", "setting": "HLA-A*02:02; [1]", "value": 10.8, "unit": "nM"},
      {"measurement": "Kd", "setting": "HLA-A*02:03; [1]", "value": 0.192, "unit": "nM"}
    ]},
    {"sequence": "SIKMIYDLNA", "values": [
      {"measurement": "Kd", "setting": "HLA-A*02:06; [1]", "value": 1030, "unit": "nM"},
      {"measurement": "Kd", "setting": "HLA-A*02:02; [1]", "value": 852, "unit": "nM"},
      {"measurement": "Kd", "setting": "HLA-A*02:03; [1]", "value": 257, "unit": "nM"}
    ]},
    {"sequence": "MAAAKTPVIV", "values": [
      {"measurement": "Kd", "setting": "HLA-A*02:06; [1]", "value": 3630, "unit": "nM"},
      {"measurement": "Kd", "setting": "HLA-A*02:02; [1]", "value": 6010, "unit": "nM"},
      {"measurement": "Kd", "setting": "HLA-A*02:03; [1]", "value": 156, "unit": "nM"}
    ]},
    {"sequence": "PAMSTYSDI", "values": [
      {"measurement": "Kd", "setting": "HLA-A*02:06; [1]", "value": "≥ 77100", "unit": "nM"},
      {"measurement": "Kd", "setting": "HLA-A*02:02; [1]", "value": 18300, "unit": "nM"},
      {"measurement": "Kd", "setting": "HLA-A*02:03; [1]", "value": "≥ 20600", "unit": "nM"}
    ]},
    {"sequence": "TLALSLTFI", "values": [
      {"measurement": "Kd", "setting": "HLA-A*02:03; source organism: Dengue virus 4 Philippines/H241/1956", "value": 1.04, "unit": "nM"}
    ]},
    {"sequence": "NATFFIFNK", "values": [
      {"measurement": "Kd", "setting": "HLA-A*11:01; [3]", "value": 87.3, "unit": "nM"},
      {"measurement": "Kd", "setting": "HLA-A*33:01; [3]", "value": 87.3, "unit": "nM"},
      {"measurement": "Kd", "setting": "HLA-A*68:01; [3]", "value": 19.5, "unit": "nM"},
      {"measurement": "Kd", "setting": "HLA-A*31:01; [3]", "value": 1710, "unit": "nM"},
      {"measurement": "Kd", "setting": "HLA-A*03:01; [3]", "value": 386, "unit": "nM"}
    ]},
    {"sequence": "IMLIIFWFSL", "values": [
      {"measurement": "Kd", "setting": "HLA-A*02:06; [3]", "value": 16800, "unit": "nM"},
      {"measurement": "Kd", "setting": "HLA-A*02:02; [3]", "value": 1540, "unit": "nM"},
      {"measurement": "Kd", "setting": "HLA-A*02:03; [3]", "value": 14900, "unit": "nM"}
    ]},
    {"sequence": "ISGIGTFLHY", "values": [
      {"measurement": "Kd", "setting": "HLA-A*11:01; [1]", "value": 364, "unit": "nM"},
      {"measurement": "Kd", "setting": "HLA-A*33:01; [1]", "value": 13800, "unit": "nM"},
      {"measurement": "Kd", "setting": "HLA-A*68:01; [1]", "value": 19700, "unit": "nM"},
      {"measurement": "Kd", "setting": "HLA-A*31:01; [1]", "value": "≥ 60500", "unit": "nM"},
      {"measurement": "Kd", "setting": "HLA-A*03:01; [1]", "value": 355, "unit": "nM"}
    ]},
    {"sequence": "TCQGSDDIRK", "values": [
      {"measurement": "Kd", "setting": "HLA-A*11:01; [5]", "value": 7000, "unit": "nM"},
      {"measurement": "Kd", "setting": "HLA-A*33:01; [5]", "value": "≥ 70000", "unit": "nM"},
      {"measurement": "Kd", "setting": "HLA-A*68:01; [5]", "value": 5710, "unit": "nM"},
      {"measurement": "Kd", "setting": "HLA-A*31:01; [5]", "value": "≥ 49900", "unit": "nM"},
      {"measurement": "Kd", "setting": "HLA-A*03:01; [5]", "value": "≥ 70000", "unit": "nM"}
    ]}
  ]
}
